Test results published in article PMC10638403, “A closed translocation channel in the substrate-free AAA+ ClpXP protease diminishes rogue degradation” (Nature Communications, 2023).

B1: E. coli ClpP (enzyme)
chain: not shown
notes: ClpP peptidase, E. coli; models hold residues 2-193 of each subunit; also called ClpP14; double-ring ClpP tetradecamer; source: E. coli HMS174(DE3), pT7 plasmid, purified (Ni-NTA, size-exclusion chromatography); copies: 14
B2: full-length E. coli ClpX (enzyme)
chain: not shown
notes: ClpX, E. coli, full length, with a neutral K408E mutation; The methods tell two purifications for full-length ClpX (Ni-NTA, gel filtration and ion exchange; or ammonium sulfate, phenyl-Sepharose and mono-Q), so the His6 tag on this form is not certain; The N-terminal domains were not visible in the map; models typically hold residues 65-413; also called wild-type ClpX; ClpX6; source: E. coli …

How the values were obtained:
[1] = target: B2; test: cryo-EM structure; ClpX6 (5.8 µM), ClpP14 (1.9 µM), λO-Arc (20 µM dimer), ATPγS (2.5 mM) in 25 mM HEPES (pH 7.5), 100 mM KCl, 25 mM MgCl2; ClpX and ClpP incubated with ATPγS for 5 min at room temperature before λO-Arc was added; the substrate-free class was refined; settings: both partners purified
[2] = target: the molecule itself; test: cryo-EM structure; single-chain ClpX^∆N (3 µM pseudohexamer) and ClpP (1.5 µM tetradecamer) in 20 mM HEPES (pH 7.5), 100 mM KCl, 25 mM MgCl2, incubated with ATP (5 mM) for 15 min at room temperature; doubly capped and singly capped particles
[3] = target: the molecule itself; test: cryo-EM structure; ClpX6 (5.8 µM), ClpP14 (1.9 µM), λO-Arc (20 µM dimer), ATPγS (2.5 mM) in 25 mM HEPES (pH 7.5), 100 mM KCl, 25 mM MgCl2; ClpX and ClpP incubated with ATPγS for 5 min at room temperature before λO-Arc was added; the substrate-free class was refined

Row | Binder | binding result [1] | stoichiometry N [2] | stoichiometry N [3]
1 | B1 | binds | 14 subunits | –
2 | B2 | – | – | 6 subunits
